# According to paper PMC12403594, “On the self-assembly of αB-crystallin” (Soft Matter, 2025):
# Key:
# [1] = molecular target: the molecule itself; assay: static light scattering; day 0 (day of thawing and dilution); 10-69 μM αBC; 20 mM sodium phosphate, 0.2 mM EDTA, 0.02% NaN3, pH 8.0; 25 °C; aggregation number from the slope of the excess Rayleigh ratio at q = 0 against concentration
# [2] = molecular target: the molecule itself; assay: static light scattering; day 7 after sample preparation; 10-69 μM αBC; 20 mM sodium phosphate, 0.2 mM EDTA, 0.02% NaN3, pH 8.0; 25 °C; aggregation number from the slope of the excess Rayleigh ratio at q = 0 against concentration
protein,measurement,setting,value
"Recombinant human αB-crystallin (natural protein, αB-crystallin, human; expressed from a synthetic gene with E. coli-optimized codons in a Pet3a vector; No tag is mentioned; The introduction gives 175 residues for the protein) MDIAIHHPWIRRPFFPFHSPSRLFDQFFGEHLLESDLFPTSTSLSPFYLRPPSFLRAPSWFDTGLSEMRLEKDRFSVNLDVKHFSPEELKVKVLGDVIEVHGKHEERQDEHGFISREFHRKYRIPADVDPLTITSSLSSDGVLTVNGPRKQVSGPERTIPITREEKPAVTAAPKK",stoichiometry N,[1],24
same,stoichiometry N,[2],19
